Experimental data from PMC9022034.

Molecular target: T1, CBM3a (family IIIa carbohydrate binding module) of the cellulosomal scaffolding protein CipC (Clostridium cellulolyticum (Ruminiclostridium cellulolyticum) H10)
T1 chain: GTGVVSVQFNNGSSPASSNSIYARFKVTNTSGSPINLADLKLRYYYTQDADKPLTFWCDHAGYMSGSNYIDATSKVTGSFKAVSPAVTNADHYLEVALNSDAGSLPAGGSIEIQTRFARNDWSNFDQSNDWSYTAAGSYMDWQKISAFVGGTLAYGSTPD
Assay: ITC
Settings: domain or fragment; C-terminal His6 tag omitted. Limits not printed and no X2 feature in the entry: estimated from the CipC module order (CBM3a-X2-Coh1..7-X2-Coh8) and the ~95-aa X2 size (1EHX is the X2-N homologue). Both edges are uncertain by about 10 residues; the segment should contain the NGNT motif. Methods sometimes call this protein X2-N, but Results state X2-C was used in vitro. / C-terminal His6 tag omitted; modification not given

B1: X2-C module of the cellulosomal scaffolding protein CipC (protein)
chain: VGDVTPVNPTITPSTASFDKYVPANVNVTLTPNGNTFKGITGLTSGTDFTVSNNVVTISKSYLSTLAVGSKTLTFDFGVTNNPVLTLTITDSTPVV
Ka: 80200 M⁻¹
